Reference: patent publication US20240218070A1 (MERUS N V, published 2024)

Columns and labels:
[1] = molecular target: T1, human TGF-βRII expressed on cells (human, UniProt P37173 23-567); test: cell-based or functional assay
[2] = molecular target: T1, human TGF-βRII expressed on cells; test: cell-based or functional assay; remark: listed apart in the source

T1 sequence (P37173 23-567 limits assumed, form in doubt): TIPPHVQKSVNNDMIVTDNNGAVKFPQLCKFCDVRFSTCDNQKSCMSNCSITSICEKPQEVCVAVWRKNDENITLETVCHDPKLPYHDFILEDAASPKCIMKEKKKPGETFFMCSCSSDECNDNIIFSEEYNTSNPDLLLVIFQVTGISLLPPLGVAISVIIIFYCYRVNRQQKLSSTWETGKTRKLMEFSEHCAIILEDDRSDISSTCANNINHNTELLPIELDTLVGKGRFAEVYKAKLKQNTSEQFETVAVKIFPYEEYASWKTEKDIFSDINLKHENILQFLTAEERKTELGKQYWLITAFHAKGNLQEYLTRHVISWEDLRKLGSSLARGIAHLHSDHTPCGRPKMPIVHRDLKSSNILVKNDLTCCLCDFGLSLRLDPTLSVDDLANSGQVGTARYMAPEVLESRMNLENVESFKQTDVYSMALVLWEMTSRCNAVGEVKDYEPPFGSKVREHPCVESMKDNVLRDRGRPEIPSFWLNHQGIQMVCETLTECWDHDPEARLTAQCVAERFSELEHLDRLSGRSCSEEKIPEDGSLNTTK

B1: Analog reference TGF-βRII antibody TGF1 (antibody, human IgG1, kappa, V domains shown)
VH: QLQVQESGPGLVKPSETLSLTCTVSGGSISNSYFSWGWIRQPPGKGLEWIGSFYYGEKTYYNPSLKSRATISIDTSKSQFSLKLSSVTAADTAVYYCPRGPTMIRGVIDSWGQGTLVTVSS
VL: EIVLTQSPATLSLSPGERATLSCRASQSVRSYLAWYQQKPGQAPRLLIYDASNRATGIPARFSGSGSGTDFTLTISSLEPEDFAVYYCQQRSNWPPTFGQGTKVEIKR
[1]
  IL-11 IC50, TGF-β1-stimulated primary colon CAFs: 0.0526 µg/mL
  pSMAD2 IC50, TGF-β1-stimulated primary colon CAFs: 0.00929 ug/ml
[2]
  Primary CAF IL-11 IC50, BLDA: 1.04 µg/mL
  Primary CAF IL-11 IC50, COAD(1): 1.22 µg/mL
  Primary CAF IL-11 IC50, COAD(2): 0.313 µg/mL
  Primary CAF IL-11 IC50, GBM: 0.264 µg/mL
  Primary CAF IL-11 IC50, HNSC: 20.2 µg/mL
  Primary CAF IL-11 IC50, LUAD: 0.765 µg/mL
  Primary CAF IL-11 IC50, LUSC: 0.085 µg/mL
  Primary CAF IL-11 IC50, MEL: 0.588 µg/mL
  Primary CAF IL-11 IC50, OV: 0.191 µg/mL
  Primary CAF IL-11 IC50, PAAD: 0.38 µg/mL
  Primary CAF pSMAD IC50, BLDA: 0.087 ug/ml
  Primary CAF pSMAD IC50, COAD(1): 0.081 ug/ml
  Primary CAF pSMAD IC50, COAD(2): 0.023 ug/ml
  Primary CAF pSMAD IC50, GBM: 0.048 ug/ml
  Primary CAF pSMAD IC50, HNSC: 0.714 ug/ml
  Primary CAF pSMAD IC50, LUAD: 0.078 ug/ml
  Primary CAF pSMAD IC50, LUSC: 0.125 ug/ml
  Primary CAF pSMAD IC50, MEL: 0.117 ug/ml
  Primary CAF pSMAD IC50, OV: 0.188 ug/ml
  Primary CAF pSMAD IC50, PAAD: 0.126 ug/ml
